Measurements taken from patent US20250092426, “CAS ENDONUCLEASES AND RELATED METHODS” (Flagship Pioneering Innovations VII, LLC, published 2025).

Target: T1, CasEnd-26 (synthetic construct)
T1 chain: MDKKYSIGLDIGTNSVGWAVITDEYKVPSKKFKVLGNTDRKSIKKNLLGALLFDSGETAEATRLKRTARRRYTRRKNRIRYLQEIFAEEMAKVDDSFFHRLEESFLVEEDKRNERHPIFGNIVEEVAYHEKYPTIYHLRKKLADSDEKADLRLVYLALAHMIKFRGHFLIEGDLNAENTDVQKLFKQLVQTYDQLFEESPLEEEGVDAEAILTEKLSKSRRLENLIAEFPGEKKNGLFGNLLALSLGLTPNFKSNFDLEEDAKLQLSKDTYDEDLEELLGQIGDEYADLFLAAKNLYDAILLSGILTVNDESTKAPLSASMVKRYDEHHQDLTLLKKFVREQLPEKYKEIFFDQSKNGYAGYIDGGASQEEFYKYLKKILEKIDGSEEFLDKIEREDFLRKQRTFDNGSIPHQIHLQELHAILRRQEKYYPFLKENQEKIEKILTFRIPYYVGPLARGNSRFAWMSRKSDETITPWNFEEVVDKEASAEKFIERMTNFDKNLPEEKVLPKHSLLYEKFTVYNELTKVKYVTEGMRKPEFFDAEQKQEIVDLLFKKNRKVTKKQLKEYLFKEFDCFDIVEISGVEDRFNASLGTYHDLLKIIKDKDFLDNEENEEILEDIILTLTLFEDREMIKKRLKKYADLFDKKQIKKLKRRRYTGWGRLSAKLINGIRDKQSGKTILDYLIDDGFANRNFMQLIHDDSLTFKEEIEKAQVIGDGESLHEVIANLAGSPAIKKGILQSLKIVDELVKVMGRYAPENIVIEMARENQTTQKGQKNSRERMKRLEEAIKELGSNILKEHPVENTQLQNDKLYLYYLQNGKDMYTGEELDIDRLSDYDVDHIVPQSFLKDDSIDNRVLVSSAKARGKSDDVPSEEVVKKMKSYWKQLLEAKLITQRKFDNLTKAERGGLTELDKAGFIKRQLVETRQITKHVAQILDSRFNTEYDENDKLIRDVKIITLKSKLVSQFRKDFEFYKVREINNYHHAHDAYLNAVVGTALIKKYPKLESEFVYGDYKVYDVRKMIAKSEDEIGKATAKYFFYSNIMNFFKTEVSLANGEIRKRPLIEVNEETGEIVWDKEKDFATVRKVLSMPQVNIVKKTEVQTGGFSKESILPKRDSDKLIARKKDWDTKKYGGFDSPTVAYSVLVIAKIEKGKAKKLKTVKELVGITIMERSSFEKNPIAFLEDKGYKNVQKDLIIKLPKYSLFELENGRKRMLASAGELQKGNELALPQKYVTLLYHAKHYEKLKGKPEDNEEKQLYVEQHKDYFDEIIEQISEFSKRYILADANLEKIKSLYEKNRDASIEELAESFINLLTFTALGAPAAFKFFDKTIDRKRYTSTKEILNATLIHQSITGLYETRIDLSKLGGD
Test: cell_activity; +++; HEK293T; PAM not stated
Outline: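 BFP-to-GFP conversion via reverse transcriptase fusion with each Cas endonuclease plus template RNA: 200 ng of each plasmid nucleofected into 250,000 BFP-expressing HEK293T cells (program DS-150). Percent GFP+ cells by flow cytometry at day 4 measured editing.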

B1: BFP-to-GFP template RNA ; BFP reporter protospacer (ssRNA ; dsDNA)
RNA: GCCGAAGCACUGCACGCCGUGUUUUAGAGCUAGAAAUAGCAAGUUAAAAUAAGGCUAGUCCGUUAUCAACUUGAAAAAGUGGCACCGAGUCGGUGCACCCUGACGUACGGCGUGCAGUGCUU
DNA 1: GCCGAAGCACTGCACGCCGT
DNA 2: ACGGCGTGCAGTGCTTCGGC
activity: ≥ 100 % of reference
